The values below come from doi:10.1101/2020.11.13.382242.

Values joined by “and” are separate entries in the source; they are usually repeats but may differ in a detail not shown here. Equal entries are not always repeated.

What all share (test): fluorescence fluctuation spectroscopy
For assay [1], the target named is Full-length GFP-CPSF6 (isoform 2; cell-free expressed, N-terminal GFP tag).
The target in assay [2] is HIV-1 capsid particles self-assembled from CA [change] (disulfide cross-linked cones and tubes) (HIV-1).
The target in assay [3] is AF568-labelled HIV-1 capsid particles co-assembled from CA [change] and CA [change]-AF568 (HIV-1).

Chain of Full-length GFP-CPSF6 (isoform 2; cell-free expressed, N-terminal GFP tag) (Q16630 whole entry, canonical isoform): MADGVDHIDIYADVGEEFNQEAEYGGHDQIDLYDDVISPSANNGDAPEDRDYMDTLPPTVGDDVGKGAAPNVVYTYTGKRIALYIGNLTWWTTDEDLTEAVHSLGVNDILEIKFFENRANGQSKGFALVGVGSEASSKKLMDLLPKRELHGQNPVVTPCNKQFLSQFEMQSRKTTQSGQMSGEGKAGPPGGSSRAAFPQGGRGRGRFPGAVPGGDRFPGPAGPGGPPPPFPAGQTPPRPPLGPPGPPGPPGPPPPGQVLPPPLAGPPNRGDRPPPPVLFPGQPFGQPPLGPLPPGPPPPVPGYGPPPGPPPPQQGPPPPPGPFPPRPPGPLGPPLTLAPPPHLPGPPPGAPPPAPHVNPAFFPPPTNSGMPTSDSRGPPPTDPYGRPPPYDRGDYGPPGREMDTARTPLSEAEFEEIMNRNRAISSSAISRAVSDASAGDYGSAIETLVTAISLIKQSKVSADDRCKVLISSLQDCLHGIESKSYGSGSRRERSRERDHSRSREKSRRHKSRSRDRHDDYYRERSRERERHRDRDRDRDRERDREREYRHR

In the case of “Full-length GFP-CPSF6 (isoform 2; cell-free expressed, N-terminal GFP tag) (natural protein)”, the fold increase in the brightness parameter compared to monomeric GFP in assay [1] is 4 fold and 8 fold. For the same substance, the fold increase in the brightness parameter in the presence of capsid in assay [2] was found to be 10 fold.
Regarding “Untagged recombinant CypA labelled with Alexa Fluor 488-C5 maleimide (from UniProt P62937 1-165) (natural protein)”, in assay [3], the Kd worked out at 16.5 µM and the analyte:CA intensity ratio relative to CPSF6-AF488 stood at 5 fold.
